In patent US20180120332A1 (CLEMSON UNIVERSITY RESEARCH FOUNDATION, published 2018):
Ends that are not written are not given here.

Target: αvβ3 integrin on human umbilical vein endothelial cells (HUVECs) (human, UniProt P06756 31-1048; P05106 27-788)
Assay: cell-based or functional assay

Sequence of αvβ3 integrin on human umbilical vein endothelial cells (HUVECs) (P06756 31-1048, chain 1 of 2): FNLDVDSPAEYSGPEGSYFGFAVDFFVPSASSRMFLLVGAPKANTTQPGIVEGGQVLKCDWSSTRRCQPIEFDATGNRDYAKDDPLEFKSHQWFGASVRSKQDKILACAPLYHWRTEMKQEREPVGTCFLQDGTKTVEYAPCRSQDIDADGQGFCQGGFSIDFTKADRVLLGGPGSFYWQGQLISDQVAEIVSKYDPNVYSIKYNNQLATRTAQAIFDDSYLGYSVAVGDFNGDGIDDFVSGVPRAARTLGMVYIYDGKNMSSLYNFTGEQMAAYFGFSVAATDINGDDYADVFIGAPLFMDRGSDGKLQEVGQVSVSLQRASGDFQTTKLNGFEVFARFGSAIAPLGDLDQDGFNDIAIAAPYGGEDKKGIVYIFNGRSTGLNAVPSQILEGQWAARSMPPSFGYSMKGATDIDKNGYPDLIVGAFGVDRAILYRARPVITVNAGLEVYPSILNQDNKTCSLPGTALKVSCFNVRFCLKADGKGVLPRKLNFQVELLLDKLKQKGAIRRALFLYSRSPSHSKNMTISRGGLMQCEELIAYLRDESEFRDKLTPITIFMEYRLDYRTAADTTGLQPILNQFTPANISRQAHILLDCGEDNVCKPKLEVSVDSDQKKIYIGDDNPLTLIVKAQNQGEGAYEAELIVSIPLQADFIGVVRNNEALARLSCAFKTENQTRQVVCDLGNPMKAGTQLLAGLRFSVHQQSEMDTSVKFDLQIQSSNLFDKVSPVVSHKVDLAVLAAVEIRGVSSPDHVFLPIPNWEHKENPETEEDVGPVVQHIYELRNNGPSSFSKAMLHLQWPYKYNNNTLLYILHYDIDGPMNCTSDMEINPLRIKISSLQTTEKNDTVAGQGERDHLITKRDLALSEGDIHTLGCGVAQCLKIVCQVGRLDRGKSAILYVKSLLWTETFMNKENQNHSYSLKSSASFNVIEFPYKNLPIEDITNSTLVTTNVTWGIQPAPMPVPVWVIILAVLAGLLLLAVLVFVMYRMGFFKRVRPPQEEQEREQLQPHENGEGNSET
Sequence of αvβ3 integrin on human umbilical vein endothelial cells (HUVECs) (P05106 27-788, chain 2 of 2): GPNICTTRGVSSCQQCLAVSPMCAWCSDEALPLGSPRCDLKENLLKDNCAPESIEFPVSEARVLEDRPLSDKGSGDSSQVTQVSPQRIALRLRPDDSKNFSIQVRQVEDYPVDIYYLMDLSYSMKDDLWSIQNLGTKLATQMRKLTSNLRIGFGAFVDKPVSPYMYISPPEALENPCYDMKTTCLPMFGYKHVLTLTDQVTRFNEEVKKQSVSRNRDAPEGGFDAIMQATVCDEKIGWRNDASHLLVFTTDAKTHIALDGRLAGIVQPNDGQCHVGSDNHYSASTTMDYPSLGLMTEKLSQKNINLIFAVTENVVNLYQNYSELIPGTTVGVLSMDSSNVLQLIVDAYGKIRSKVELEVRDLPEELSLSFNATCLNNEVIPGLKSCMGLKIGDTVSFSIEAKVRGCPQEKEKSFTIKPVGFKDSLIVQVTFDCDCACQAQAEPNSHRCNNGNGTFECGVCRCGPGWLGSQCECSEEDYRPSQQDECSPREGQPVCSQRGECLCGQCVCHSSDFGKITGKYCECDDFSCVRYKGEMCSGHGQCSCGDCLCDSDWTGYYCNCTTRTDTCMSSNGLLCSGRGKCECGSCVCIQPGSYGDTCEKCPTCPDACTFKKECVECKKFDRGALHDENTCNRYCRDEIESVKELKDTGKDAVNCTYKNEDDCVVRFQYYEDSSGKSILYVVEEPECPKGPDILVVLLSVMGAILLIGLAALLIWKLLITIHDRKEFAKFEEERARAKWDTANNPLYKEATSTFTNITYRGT

B1: α1 peptide (TFALRGDNP), RGD peptide derived from laminin α1 subunit (peptide)
peptide: TFALRGDNP
modifications: also: N-terminus conjugated to oxidized alginate (EDC-NHS) or methacrylated and co-polymerized with PEGDA
decrease in HUVEC adhesion on peptide functionalized alginate when αvβ3 integrin is blocked: ~60%

B2: RGDS peptide (peptide)
peptide: RGDS
modifications: also: N-terminus conjugated to oxidized alginate (EDC-NHS) or methacrylated and co-polymerized with PEGDA
decrease in HUVEC adhesion on peptide functionalized alginate when αvβ3 integrin is blocked: ~35%

B3: RGDSP peptide (peptide)
peptide: RGDSP
modifications: also: N-terminus conjugated to oxidized alginate (EDC-NHS) or methacrylated and co-polymerized with PEGDA
decrease in HUVEC adhesion on peptide functionalized alginate when αvβ3 integrin is blocked: ~35%
